The record followed here is patent publication US20100330078A1 (Pfizer, published 2010).

The target in test [1] is T1, human integrin α5β1 on cells (endogenous, HUVEC; tumor or endothelial-expressed) (human, UniProt P08648 42-1049; P05556 21-798).
T1 construct: whole, on cells; also called cell surface integrin α5; endogenous α5β1
Kind of test: FACS on HUVEC (endogenous human α5β1), GeoMean against mAb concentration, fitted; experiment 031307. The method, then:
(§1) The 22B5/DLE, 24C7/DLE, 1 D9/DLE, and 2D2/DLE antibodies were tested for their binding affinity to cell surface integrin α5 using a FACS assay, employing endogenous human integrin α5β1 expressing cells (HUVEC). Briefly, the cells were detached using trypsin-EDTA and washed with cold PBS. After being aliquoted into 96-well plates, the cells were blocked by serum and incubated with different concentrations of specific mAb for 1 hour at 4° C. Subsequently, the cells were washed and incubated with an anti-human κ secondary antibody conjugated with the R-PE fluorophore and analyzed using a FACSCalibur flow cytometer. 10,000 events were collected for each sample without applying any gating. For KD determination, the Geometric Mean of each sample histogram was calculated and plotted as a function of the mAb concentration. KD was calculated after fitting to a two-state equilibrium model.

In the next test the target is T2, Murine FcγRIV (murine, UniProt A0A0B4J1G0 21-203).
T2 construct: Construct not described; also called mFcγRIV
T2 sequence: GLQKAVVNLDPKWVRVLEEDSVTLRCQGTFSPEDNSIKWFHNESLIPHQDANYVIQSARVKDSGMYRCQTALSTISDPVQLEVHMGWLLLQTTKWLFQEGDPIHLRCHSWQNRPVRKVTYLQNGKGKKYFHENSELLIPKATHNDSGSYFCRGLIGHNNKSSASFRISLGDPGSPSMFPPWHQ
Kind of test: Biacore, KD against 22B5 wild type IgG1. The method, then:
(§2) The ability of 22B5/DLE, which contains the IgG1 DLE triple mutations (as discussed previously in Example 2), to enhance binding to the FcγRs was evaluated in a Biacore binding experiment. The FcγR binding affinities of 22B5/DLE were compared with the binding affinity of wild type (wt) IgG1. […] The binding affinity comparison of 22B5/DLE and wild type IgG1 was also evaluated against the murine Fcγ receptors. The greatest enhancement in binding was to the mFcγRIV, followed by mFcγRI, and mFcγRIII (see FIG. 5).
On the technique in general: SPR reads the build-up and loss of mass on a sensor chip optically.

A further test concerns the target T3, Human FcγRIIa/131H (human, UniProt P12318 36-218, limits assumed).
T3 construct: Polymorphic variant 131H; construct not described
T3 sequence (looked up): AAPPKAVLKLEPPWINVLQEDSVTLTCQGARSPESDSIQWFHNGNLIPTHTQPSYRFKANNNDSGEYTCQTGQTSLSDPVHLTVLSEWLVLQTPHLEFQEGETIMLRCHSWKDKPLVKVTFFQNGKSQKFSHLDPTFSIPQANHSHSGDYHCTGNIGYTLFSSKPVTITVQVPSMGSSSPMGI
Kind of test: Biacore, KD against 22B5 wild type IgG1. The method, then: as §2

The target in the next test is T4, Murine FcγRI (murine, UniProt P26151 25-297, limits assumed).
T4 construct: Construct not described; also called mFcγRI
T4 sequence (looked up): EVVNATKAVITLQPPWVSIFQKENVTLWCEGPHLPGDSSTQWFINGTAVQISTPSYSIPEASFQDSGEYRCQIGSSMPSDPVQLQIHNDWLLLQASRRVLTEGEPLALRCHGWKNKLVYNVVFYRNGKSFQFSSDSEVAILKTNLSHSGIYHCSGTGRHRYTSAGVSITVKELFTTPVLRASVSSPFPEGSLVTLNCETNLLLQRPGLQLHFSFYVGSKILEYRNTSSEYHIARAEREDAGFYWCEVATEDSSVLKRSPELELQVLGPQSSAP
The test is described as follows: Biacore, KD against 22B5 wild type IgG1. The method, then:
as §2

Test [2] concerns the target T1, human integrin α5β1 on cells …. Kind of test: cell-based or functional assay.
The target is the same in test [3]. Kind of test: FACS on HUVEC, geometric mean against mAb concentration, two-state equilibrium model. The method, then: as §1, with “22B5/DLE antibody was” for “22B5/DLE, 24C7/DLE, 1 D9/DLE, and 2D2/DLE antibodies were”, “its” for “their”
The target is the same in test [4]. The test is described as follows: FACS on HUVEC (endogenous human α5β1), GeoMean against mAb concentration, fitted; experiment 030207.

T1 sequence (P08648 42-1049, chain 1 of 2): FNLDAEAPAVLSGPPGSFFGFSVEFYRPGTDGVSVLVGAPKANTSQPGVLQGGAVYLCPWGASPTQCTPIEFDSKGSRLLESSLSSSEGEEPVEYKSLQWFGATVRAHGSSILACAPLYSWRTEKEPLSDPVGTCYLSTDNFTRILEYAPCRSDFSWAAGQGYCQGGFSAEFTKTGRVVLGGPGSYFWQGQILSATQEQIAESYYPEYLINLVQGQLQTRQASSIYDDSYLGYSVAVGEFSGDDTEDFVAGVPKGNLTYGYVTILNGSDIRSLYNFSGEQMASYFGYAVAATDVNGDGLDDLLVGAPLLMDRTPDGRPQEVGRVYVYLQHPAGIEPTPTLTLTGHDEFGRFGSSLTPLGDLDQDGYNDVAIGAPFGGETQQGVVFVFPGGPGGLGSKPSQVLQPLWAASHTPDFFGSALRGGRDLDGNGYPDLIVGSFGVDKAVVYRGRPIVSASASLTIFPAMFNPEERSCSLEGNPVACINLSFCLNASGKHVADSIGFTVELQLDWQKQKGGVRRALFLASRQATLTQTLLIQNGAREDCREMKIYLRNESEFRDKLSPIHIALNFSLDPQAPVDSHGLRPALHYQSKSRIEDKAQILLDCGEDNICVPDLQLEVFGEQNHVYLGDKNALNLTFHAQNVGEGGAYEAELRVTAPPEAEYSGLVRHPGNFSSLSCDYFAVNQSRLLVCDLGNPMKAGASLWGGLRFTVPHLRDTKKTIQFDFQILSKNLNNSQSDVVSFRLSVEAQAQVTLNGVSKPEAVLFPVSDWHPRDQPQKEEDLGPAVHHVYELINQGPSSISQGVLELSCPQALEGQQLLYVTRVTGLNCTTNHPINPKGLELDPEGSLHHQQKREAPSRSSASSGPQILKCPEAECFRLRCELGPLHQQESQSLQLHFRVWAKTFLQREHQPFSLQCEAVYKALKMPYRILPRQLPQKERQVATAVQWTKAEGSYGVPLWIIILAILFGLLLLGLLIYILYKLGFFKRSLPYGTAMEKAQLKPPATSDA
T1 sequence (P05556 21-798, chain 2 of 2): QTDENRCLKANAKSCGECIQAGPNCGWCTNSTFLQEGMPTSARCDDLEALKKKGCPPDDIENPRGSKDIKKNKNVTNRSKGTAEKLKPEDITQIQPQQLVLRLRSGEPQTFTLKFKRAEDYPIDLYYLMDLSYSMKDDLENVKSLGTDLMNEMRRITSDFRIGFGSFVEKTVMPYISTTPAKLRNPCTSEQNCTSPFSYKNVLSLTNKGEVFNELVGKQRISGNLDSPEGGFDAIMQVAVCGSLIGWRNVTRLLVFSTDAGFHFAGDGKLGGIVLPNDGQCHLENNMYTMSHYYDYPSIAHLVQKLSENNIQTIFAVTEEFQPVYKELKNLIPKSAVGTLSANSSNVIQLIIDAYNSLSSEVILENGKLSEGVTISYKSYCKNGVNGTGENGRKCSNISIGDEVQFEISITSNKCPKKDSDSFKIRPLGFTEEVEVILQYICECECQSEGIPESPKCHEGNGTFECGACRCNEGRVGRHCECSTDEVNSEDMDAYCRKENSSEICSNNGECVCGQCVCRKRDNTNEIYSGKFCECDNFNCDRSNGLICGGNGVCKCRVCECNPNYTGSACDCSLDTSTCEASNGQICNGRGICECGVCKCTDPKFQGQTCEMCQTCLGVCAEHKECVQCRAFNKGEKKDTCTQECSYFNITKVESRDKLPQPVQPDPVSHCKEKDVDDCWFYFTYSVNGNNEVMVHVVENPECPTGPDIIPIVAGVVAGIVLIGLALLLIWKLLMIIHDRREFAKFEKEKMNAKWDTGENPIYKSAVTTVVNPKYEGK

B1: 22B5/DLE (antibody, human IgG1, kappa)
heavy: QLQLQESGPGLVKPSETLSLTCTVSGGSISSSSYWGWIRQPPGKGLEWIGSIYYSGRNYNNPSLKSRVTISVDTSKNQFSLKLSSVTAADTAVYYCARHYYGSGSSYYYYDLDVWGQGTTVTVSSASTKGPSVFPLAPSSKSTSGGTAALGCLVKDYFPEPVTVSWNSGALTSGVHTFPAVLQSSGLYSLSSVVTVPSSSLGTQTYICNVNHKPSNTKVDKKVEPKSCDKTHTCPPCPAPELLGGPDVFLFPPKPKDTLMISRTPEVTCVVVDVSHEDPEVKFNWYVDGVEVHNAKTKPREEQYNSTYRVVSVLTVLHQDWLNGKEYKCKVSNKALPLPEEKTISKAKGQPREPQVYTLPPSREEMTKNQVSLTCLVKGFYPSDIAVEWESNGQPENNYKTTPPVLDSDGSFFLYSKLTVDKSRWQQGNVFSCSVMHEALHNHYTQKSLSLSPGK
light: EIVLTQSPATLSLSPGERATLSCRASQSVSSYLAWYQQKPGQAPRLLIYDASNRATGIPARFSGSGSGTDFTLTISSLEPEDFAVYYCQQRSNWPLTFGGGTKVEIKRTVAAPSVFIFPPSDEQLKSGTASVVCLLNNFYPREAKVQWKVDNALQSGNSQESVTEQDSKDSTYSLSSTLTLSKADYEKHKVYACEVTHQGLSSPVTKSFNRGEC
notes: Human IgG1 with Fc mutations S247D, A338L, I340E; the VH already holds the germline back-mutations I30S and N33S; also called 22B5 IgG1 DLE; 22B5 G1 DLE
Consider B1, for which the Kd (usually a measure of binding affinity in units of concentration) in test [1] came out at 1.99 nM; in test [3] it was 2.15 nM; in test [4], 2.42 nM. The “Fold enhancement over wt IgG1” value was 260 fold in the test with Murine FcγRIV, 1.6 fold with Human FcγRIIa/131H and 14 fold with Murine FcγRI. Moreover, the “IC50, inhibition of HUVEC adhesion to fibronectin (fluorescence 485/535 nM)” value in test [2] was 1.01 nM.
